Results reported in publication PMC6251712 (Archives of biochemistry and biophysics, 2018).
Non-standard residues stand in square brackets, D forms with d. No end group written: not given here. FAM = fluorescent label on the peptide N-terminus (FAM, not expanded in the evidence); pY = N[C@@H](Cc1ccc(OP(=O)(O)O)cc1)C(=O)O

Tests used:
[1] = target: FAM-labeled c-MET peptide (1353-1360) with Y1356 phosphorylated, FAM-N-A-T-pY-V-N-V-K; experiment: fluorescence polarisation
[2] = target: SHIP2 SH2 domain (SHIP2-SH2), wild type (human) (UniProt O15357); experiment: NMR titration
[3] = target: T1, SHIP2-SH2 S84A (human, UniProt O15357 20-117, S84A); experiment: fluorescence polarisation
T1 sequence (looked up): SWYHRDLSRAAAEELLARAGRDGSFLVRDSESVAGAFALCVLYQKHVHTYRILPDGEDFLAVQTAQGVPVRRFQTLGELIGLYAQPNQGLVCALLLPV

[4] = target: T2, SHIP2-SH2 E50A (human, UniProt O15357 20-117, E50A); experiment: fluorescence polarisation
T2 sequence (looked up): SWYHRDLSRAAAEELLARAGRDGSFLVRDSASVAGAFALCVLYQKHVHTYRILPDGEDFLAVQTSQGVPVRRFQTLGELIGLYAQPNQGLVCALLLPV

[5] = target: T3, SHIP2-SH2 Q82A (human, UniProt O15357 20-117, Q82A); experiment: fluorescence polarisation
T3 sequence (looked up): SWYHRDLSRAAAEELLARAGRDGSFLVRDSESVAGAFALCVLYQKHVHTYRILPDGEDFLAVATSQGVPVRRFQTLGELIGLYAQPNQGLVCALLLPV

[6] = target: T4, SHIP2-SH2 R28A (human, UniProt O15357 20-117, R28A); experiment: fluorescence polarisation
T4 sequence (looked up): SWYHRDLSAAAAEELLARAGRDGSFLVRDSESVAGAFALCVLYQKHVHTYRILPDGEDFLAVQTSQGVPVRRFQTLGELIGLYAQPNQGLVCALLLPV

[7] = target: T5, SHIP2-SH2 R70A (human, UniProt O15357 20-117, R70A); experiment: fluorescence polarisation
T5 sequence (looked up): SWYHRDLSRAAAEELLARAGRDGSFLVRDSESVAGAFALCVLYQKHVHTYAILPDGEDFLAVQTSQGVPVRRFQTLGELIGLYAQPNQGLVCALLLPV

[8] = target: T6, SHIP2-SH2 S27A (human, UniProt O15357 20-117, S27A); experiment: fluorescence polarisation
T6 sequence (looked up): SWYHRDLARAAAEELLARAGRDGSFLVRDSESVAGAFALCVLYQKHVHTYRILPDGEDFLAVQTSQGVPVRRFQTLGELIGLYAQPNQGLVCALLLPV

[9] = target: T7, SHIP2-SH2 D48A (human, UniProt O15357 20-117, D48A); experiment: fluorescence polarisation
T7 sequence (looked up): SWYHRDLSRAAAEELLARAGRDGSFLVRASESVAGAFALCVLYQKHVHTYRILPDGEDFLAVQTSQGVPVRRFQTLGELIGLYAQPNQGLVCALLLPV

[10] = target: T8, SHIP2-SH2 S49A (human, UniProt O15357 20-117, S49A); experiment: fluorescence polarisation
T8 sequence (looked up): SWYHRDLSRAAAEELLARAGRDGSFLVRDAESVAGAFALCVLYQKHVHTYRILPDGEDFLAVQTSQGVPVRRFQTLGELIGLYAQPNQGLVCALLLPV

Molecule: SHIP2 SH2 domain (SHIP2-SH2), wild type (from UniProt O15357 20-117) (domain or fragment)
- Kd [1]: 7.4 µM

Molecule: Y1356-phosphorylated c-MET peptide (1353-1360), N-A-T-pY-V-N-V-K, unlabeled
- Kd [2]: 16.5 µM

Molecule: {FAM}-NAT[pY]VNVK [FAM-labeled c-MET peptide (1353-1360) with Y1356 phosphorylated, FAM-N-A-T-pY-V-N-V-K]
- Kd [3]: 6.4 ± 0.2 µM
- Kd [4]: 3.2 ± 0.1 µM
- Kd [5]: 7.5 ± 0.3 µM
- Kd [6]: 24.7 ± 1 µM
- Kd [7]: 239 ± 12.1 µM
- Kd [8]: 7.3 ± 0.3 µM
- Kd [9]: 5.5 ± 0.2 µM
- Kd [10]: 134 ± 5.6 µM
